Measured values published in patent US7070771.

Biological target: CD40 (human, on CLL B cells and CD40-positive tumor cell lines) (human) (UniProt P25942)
Assay: cell-based or functional assay

UniProt P25942, sequence (P25942 21-277): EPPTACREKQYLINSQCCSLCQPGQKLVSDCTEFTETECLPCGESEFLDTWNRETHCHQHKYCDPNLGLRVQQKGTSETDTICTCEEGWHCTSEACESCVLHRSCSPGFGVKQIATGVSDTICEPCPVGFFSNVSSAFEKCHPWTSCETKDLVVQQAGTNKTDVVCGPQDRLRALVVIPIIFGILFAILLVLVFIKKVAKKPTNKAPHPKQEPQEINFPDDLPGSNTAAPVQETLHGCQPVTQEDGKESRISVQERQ

G28-5 (an anti-CD40 monoclonal antibody)
% positive cells, Human CD80 (CLL cells): 26.7%
